Laboratory results reported in the nanobody polyreactivity screen of Harvey et al. (2022).

Assay: yeast display, Sf9 membrane polyspecificity reagent, FACS + sequencing; frameworks hold sequencing errors
Method in brief: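 After 36–48 hours of galactose induction, yeast (Saccharomyces cerevisiae BJ5465) displaying a synthetic nanobody library were stained at 4 °C for 1 hour with 10% biotinylated, detergent-solubilized Sf9 membrane reagent. Streptavidin microbeads enriched the stained cells before FACS sorting into low and high (top ~1%) gates on anti-HA and streptavidin fluorescence. Each clone's polyreactivity label reflects its gate of origin.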

Sequence | polyreactivity (PSR sort gate)
QVQLVESGGGLVQAGGSLRLSCAASGRTIQTYAMGWYRQAPRKERELVAAITSSGGSTYYADSVKGRFTISRDNAKNTVYLQMNSLIPEDSAVYYWSAYRRIRVGVPVRTYYYWGQGTQVTVSS | high polyreactivity
QVQLVESGGGLVQAGGSLRLSCAASGRTFAPYAMAWYRQAPGKERELVAVISSSGGRTYYADSVKGRFTISRDNAKNTVYLQMNSLKPEDTAVYYCAADVYGYRFFKTGRYDYWGQGSQVTVSS | high polyreactivity
QVQHVESGGGILQAGRSLRLICAASGRLYLSNVMAWNRQAPGTERQLVAAITGRGSSTYYADSVKGRFTISRDNAKNTVYLLINSLKPEDSAVYSCAKRLPYSSGYEYWGQGTQVTVSS | high polyreactivity
QVQLVESGGGLVQAGGSLRLSCAASGSTLSIYAMGWYRQAPGKERELVAAISSIGGSTYYADSVKGRFTISRDNAKNTVYLQMNSLKPEDTAVYYCAAELYGGYYYWGQGTQVTVSS | high polyreactivity
QVQLVESGGGLVQAGGSLRLSCAASGRTFPENTMGWYRQAPAKERELVAAISSTTSTNYADSVKGRFTISRDNAKNTVYLQMNSLKPEDTAVYFWADDFWEYDGPWYANDYESWGLGTQVTVSS | low polyreactivity
QVQHVETGGGLVQAGGSLRLSCAASGIFGYNAMGGYRQAPAKERELVAGITKSGARTYYADSVKGRFTISRDNAKNTVYLQMNSLKPEDTAVYYCKAVGKRFYNDDYWGQGTQVTVSS | high polyreactivity
QVQLVESGGGLVQAGGSLRLSCAASGRIFNRYTMGWYRQAPGKERELGAAISKSGGSTYYADSVKGRFTISRDNAKNTVYVQMNSLKPEDTAVYDCAAPPRLYRWHGGDYWGQGTQVTVSS | high polyreactivity
QVQLVESGGGLVQAGGRLRLSCAASGRIFAANVMGSYRQAPGKERELVAAISWNGGSTYYADSEKGRFTISRDNAKKSVYLQLNSLKPEDTAVYYCAVRGSYRVWYDYWGQGTQVTVSS | high polyreactivity
QVQLVESGGGLVQAGGSLRLSCAASGSIFPANAMGWYRQPPGKERELVAAISRRGGNTYYADSVKGRFTISRDNAKNTVYLQMNSLKPEDTAVYYCAAYYFYRRYDYWGQGTQVTVSS | high polyreactivity
QVQLVESGGGLVQAGGSLRLSCAASGFIYYAMGWYRQAPGKERELVAAISRGGTTYYADSVKGRFTISRDNAKNTVYLQMNSLKPEVTAVSYCNAVGYRAVGYKTGYARYGYWGQGTQVTVSS | high polyreactivity
QVQLVESRGGLVQAGGSLRLSCAASGFIFGFYALGWYRQEPGTEMELVAAITWDGGSTYYADSVKGRFTISRDNAKNTVYLQMNSLKPEDTAVYYCAAYFQYQDVDYDYWGQGTQVTVSS | high polyreactivity
QVQLVESGGGLVQAGGSLRLSCAASGFTLDPYALGWYRQAPGKERELVAAIRLSGCSTYYADSVKGRFTISRDNAKNTVYLQMNSLKPEDTAVYYCAADGISHWLYRYDYWGQGTQVTVSS | low polyreactivity
QVQLVESGGGLVQAGGSLRLSCAASASIFYRNAMGWYRQAPGKERELVAGITTRGGSTYYADSVKGRFTISRDNAKNTVYLQMNSLNPEDTAVYYCNRRFPIYGSRFGYYYWGQGTQVTVSS | high polyreactivity
QVQLVESGGGLVQAGGSLRLSCAASGITFATNTMGWYRQAPGKERELVASINYRGGSTYYADSVKGRFTISRDNAKNTVYLQMNSLKPEDTAVYYCNADIYLEYDYWGQGTQVTVSS | low polyreactivity
QVQLVESGGGLVQAGGSLRLSCAASGITFRAYVMGWYRQAPGKERELVAAINRRGGSTYYADSVKGRFTISRDNEKNTVYLQMNSLKPEDTAVYYCGNGDFDYWGQGTQVTVSS | high polyreactivity
QVQLVDSGGGLVQAGGSLRLSCAASGSTFKYYAMGWYRQAPGKERELVAAISGRGGRTYYADSVKGRFTISRDHAKNTVYLQMNSLKPEDTAVYYCNAPFLGAHHYGYEYWGQGTQVTVSS | high polyreactivity
QVQLVESGGGLVQAGGSLRLSCAASGIIFTDTAMGGYTQPPGKVRELVATISWSTDNTYYADSVKGRFTISRDNAKNTVYLQMNSLKPEDTAVYYCAAEEFYAYWYQSDYWGQGTQVTVSS | low polyreactivity
QVQLVESGGGLVQAGGSLRLSCAASGRTFLYVMGWNIQAPGKERELVAASSRGGSTSYADSVKGRFTISRDNAKNTVYLQMNSMKPEVTAVYYCAATNYWRDGYWGQGTQVTVSS | high polyreactivity
QVQLVESGGGLVQAGGSLRLSCAASGRIYNSNAMGWYRQAPGKERQLVAAITTSGASTYYADSVKGRFTISRDNAKNTVYLQMNSLKPEDTSVYYCATYAVVYPFAMDYWGQGTQVTVSS | low polyreactivity
QVQLVESGGGLVQAGGSLRLSCAASGSIFFWYAMGWYRQAPGKVRELVAAISYSGSRTYYSDSVKGRFTISRDNAKNTVYLQMNSLKPEDTAVDYFNVSLYSGAEYDYWGQGTQVTVSS | high polyreactivity
QVQLVESGGGLVQAGGSLRLSCAASGLIFRYYAMGWYRQAPGKERELVAAISYSGGRTYYADSVKGRFTISRDNAKNTVYLQMNSLKPEDTAVYYCAAVDRRGYRYALDYWGQGTQVTVSS | high polyreactivity
QVQLVESGGGLVQAGGSLRLSCAASGSTFNVNAMGWYRQAPGKERELVAAISSDGITNYADSVKRRFTISRDNAKNTVYLQMNSLKPEDTAVYYCNADWTDGDWADMDYWGQGTQVTVSS | low polyreactivity

Sequence | polyreactivity (PSR sort gate)
QVQLVESGGVLVQAGGSLRLSCAASGSIFDSNAMGWYRQAPGKERELVAAISWSGSRTYYADSVKGRFTISRDYAKNTVYLQILSLKPEDTAVYYCAALVRRYGKYDYWGQCTQVTVSS | high polyreactivity
QVQLVESGGGLVQAGGSLRLSCAASGSIYGTNAMGWYRQAPGKERELVSAIDGGSTTYYADSVKGRFTISRDNAKNTVYLQMNSLKPEDTAVYYCAADGTRYLNYEGYAGYEYWGQGTQVTVSS | low polyreactivity
QVQLVESGGGLVQAGGSLRLSCAASGIIFPRYALGWYRQAPGKERELVAAITIGGRTNYADSVKGRFTISRDNAKNTVYLQMNSLKPEDPAVYYGAAQTYVPYYEYDYWGQGTQVTVSS | low polyreactivity
QVQLEESGGGLVQAGGSLRLSCAASGFTFARNGMGWYRQAPVKESEFVAAITRSGGRTYYADSVKGRFTISRDNAKNTVYLQMNSLKPEDTAVYYCAAATSYGKSEYDYWGQGTQVTVSS | high polyreactivity
QVQLVESGGGLVQAGGSLRLSSAPSGSTIHTYTMGWYRQAPGKDRELVAGISRSGGTTYYADSVKGRFTISRDNAKNTVYLQMNSLKPEVTAVYDCNALSSKTDTYDYWGQGTQVTVSS | high polyreactivity
QVQLVESGGGLVQAGGSLRLSCAASGITFGRNTMGWYRQAPGKERELVAAIDSGGNTYADSVKGRFTISRDNAKNTVYLQMNSLKPEDTAVYYCAVDGGEFSSSGYWGQGTQVPVSS | low polyreactivity
QVQLEESGGGLVQAGGSLRLSCAASGIIFSGNAMGWYRQAPGKERELVAANTRSGGTTYYADSVKGRFTISRDNAKNTVYLQMNSLKPEDTAVYYCAASYPLYVFYVSGYDYWGQGTQVTVSS | low polyreactivity
QVQLVESGGVLVQAGGSLRLSCPASGRTFTYNAMGWYRQAPGKERELVAVITNSGGSTYYADSVKGRFTISRDNPKNTVYLQMNSLKPEDTAVYYCAADYFYRYWYRFYYWGQGTQVTVSS | high polyreactivity
QVQLVESGGGLVQAGGSLRLSCAASGSTFFYNAMGWYRQAPGKERELVAAMSLSGGSITYYADSVKGRFTISRDNANNTVYLQMNSLKPEDTAVYYCAADSQATSYGLDYWGQGTQVTVSS | low polyreactivity
QVQLVESGGGLVQAGGSLRLSCAASGRTFYLYGMGWYRQAPGKERELVAAITLSDGSTYYADSVKGRFTISRDNAKNTVYLQMKSLKPEDTAVYYCAARDYPFPYAMNYWGQGTQVTVSS | low polyreactivity
QVQLVESGGGLVQAGGSLRLSCAGSGFTFIIYAMGWYREAPGKERELVAAITRSGGSTYYADSVKGRFTISRDNAKNTVYLQMNSLKPEDTAVYYCAAALSVRFYFWGQGTQVTVSS | high polyreactivity
QVQLVESGGGLVQAGGSLRLSCAASGSTFYGYAMGWYRQAPGKERELVAAITRSGGSTYYADSVKGRFTISRDNAKNTVYLQMNSLKPEDSEVYYCNKYGYKGGVGYDYWGQGTEVTVSS | high polyreactivity
QVQLVESGGRLVQAGGSLRLSCAASGSTIPYYTMGWYRQAPGKERELVAAIRYSGSSTYYADSVKGRFTISRDNAKNTVYLQMNSLKPEDTAVYYCAKTLWRRRGDRRYRVIEMDHWGQGTQVTVSS | low polyreactivity
QVQLVESGGGLVQAGGSLRLSCAASGSTFPRNAMGWYRQAPGKERELVATITSSAGGTYYADSVKGRFTISRDNAKNTVYLQMNSLKPEDTAVYYCNADKNGFWYTYFGRERDYWGQGTQVTVSS | low polyreactivity
QVQLVESGGRLVQAGGSLRLSCAASGRTFIKYAMGWYRQAPGKERELVAAISRNGGSTNYADSVKGRFTISRDNAKNTVYLQMNSLKPEDTAVYYCAAVGTVSRTVGYNYWGQGTQVTVSS | high polyreactivity
QVHLVESGGGLVQAGGTLRLSCAASGRIFHPNEMRWYRQAPGKEWELVAAISWRGTSTYADSVKGRFTISRDNAKNTVYLQMNSLKPEDTAVYYCVRRYTGLPGWSSYGSYESGYWGQGTQVTVSS | high polyreactivity
QVQLVESGGGLVQAGGSLRLSCAASGYTFKTYAMGWYRQAPGKERELVAAIRTSGGSTYYADSVKGRFTISRDNAKNTVYLQMNSLKPEDTAVYYCAAAFNYYGSLYDYWGQGTQVTVSS | high polyreactivity
QVQLQESGGGLVQASGSLRLSCAASGNIFPDYVMGWYRLAPGKEREFVANITGGSTTNYADSVKGRFTISRDNAKNTVYLQMNSLNPEDTAVYYCAVNFGTVVLYLYWGQGTQVTVSS | high polyreactivity
QVQLVESGGGLVQAGGSLRLSCAASGRSFYFNAMGWYRQAPGKEWELVAVINSSGSTDYADSVKGRFTISRDNAKNTVYLQMNSLKPEDTAVYYCAAEVTPSGYGYWGQGTQVTVSS | low polyreactivity
QVQLVETGGGLVQAGGSLRLSCAASGNIFRAYPMGWYRQAPGKERELVARINSGAITNYADSVKGRFTISRDNAKNTVYLQMNSLKPDDTAVYYCARDTQYPYYFLMDYWGQGTQVTVSS | low polyreactivity
QVQLVESGGGLVQAGGSLRLSCAASGFIFQPNAMGWYRQAPGKERELVAVITWSGGSTYYADSVKGRFTISRDNAKNTVYLQMNSLKPEDTAVYYCAVDGAYDQKPTDLKGYYYWGQGTQVTVSS | low polyreactivity
